Source: the supplement of paper PMC10567573

B1: ZER1 (parent)
chain: FDGPEAWGVCEPQREEVEERMWAA

Variants of: B1
Assay: protein stability index of a GFP-peptide fusion (GPS, HEK-293T) (PSI 1-6); higher = more stable
Conditions: c terminus: a fixed tail appended
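Further: lentivirally expressed fusions sorted by FACS into six bins by GFP to DsRed ratio, PSI derived from sequencing read proportions per bin multiplied by bin number.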

Protein stability index, by site and new letter:
A23: Y 2.04 | I 2.64 | M 3.08 | W 2.3 | V 2.47 | S 2.62 | D 3.41 | K 2.77 | H 2.58 | C 2.46 | P 2.66 | T 2.67 | F 2.16 | G 2.9 | N 2.93 | Q 2.61 | L 2.23 | E 2.44 | R 2.61
W22: Y 3.73 | G 2.81 | D 3.75 | C 3.17 | S 3.25 | H 2.62 | E 3.79 | P 3.57 | V 3.44 | F 2.57 | Q 2.73 | A 2.79 | M 2.61 | N 3.17 | T 3.4 | L 2.42 | I 2.63 | K 2.75 | R 3.59
E18: L 2.11 | V 2.12 | I 2.21 | P 2.69 | W 2.04 | K 1.57 | Y 2.08 | M 1.84 | R 2.53 | D 2.68 | N 1.92 | T 2.62 | Q 1.95 | G 3.36 | F 2.5 | C 2 | A 2.27 | S 2.52 | H 3.04
R20: P 2.92 | H 2.55 | Y 2.5 | L 2.55 | F 2.65 | I 2.27 | S 2.79 | M 3.09 | N 2.75 | W 2.15 | T 3.23 | E 3.17 | G 2.96 | C 2.6 | K 2.34 | Q 2.77 | V 2.67 | D 2.94 | A 3.1
E19: Y 1.94 | N 2.4 | S 2.45 | C 2.05 | P 2.21 | W 2.05 | D 2.48 | A 2.68 | G 2.15 | V 1.98 | F 2.1 | R 2.35 | H 1.91 | K 3.35 | T 2.87 | Q 2.55 | I 2.09 | M 2.22 | L 2.17
V17: C 2.3 | R 2.24 | Y 2.75 | Q 2.55 | N 3.28 | K 2.41 | T 2.47 | D 2.61 | S 2.64 | H 2.77 | E 3.18 | I 2.26 | L 2.34 | G 2.36 | W 2.44 | M 2.26 | P 2.65 | F 3.62
M21: K 2.76 | A 3.06 | L 2.71 | G 3.27 | W 2.46 | E 3.56 | C 2.46 | N 2.2 | V 3.45 | I 2.63 | Y 2.39 | S 2.38 | Q 2.89 | P 2.47 | R 2.69 | D 3.16 | T 2.4 | H 2.21 | F 2.24
A24: P 3.05 | S 2.7 | Y 2.49 | F 1.96 | W 2.15 | L 2.98 | D 2.88 | C 3.55 | T 2.49 | R 2.76 | I 2.13 | G 3.03 | E 2.64 | H 2.56 | Q 2.86 | N 2.76 | V 2.53 | M 2.51 | K 2.78
